Our source for the percent reduction of coimmunoprecipitated suPAR compared to uPA alone values is patent US20080280833A1, “Therapeutic Peptides Derived from Urokinase Plasminogen Activator Receptor” (priority 2005, published 2008).

This assay concerns the target purified human αvβ3 integrin (Chemicon) (human) (UniProt P06756). In words: cell-free pull-down: 125I-suPAR + αvβ3 + uPA + D2A (5 µg), immunoprecipitation with LM609, densitometry.

Sequence of purified human αvβ3 integrin (Chemicon) (human) (P06756 31-1048, form in doubt, chain 1 of 2): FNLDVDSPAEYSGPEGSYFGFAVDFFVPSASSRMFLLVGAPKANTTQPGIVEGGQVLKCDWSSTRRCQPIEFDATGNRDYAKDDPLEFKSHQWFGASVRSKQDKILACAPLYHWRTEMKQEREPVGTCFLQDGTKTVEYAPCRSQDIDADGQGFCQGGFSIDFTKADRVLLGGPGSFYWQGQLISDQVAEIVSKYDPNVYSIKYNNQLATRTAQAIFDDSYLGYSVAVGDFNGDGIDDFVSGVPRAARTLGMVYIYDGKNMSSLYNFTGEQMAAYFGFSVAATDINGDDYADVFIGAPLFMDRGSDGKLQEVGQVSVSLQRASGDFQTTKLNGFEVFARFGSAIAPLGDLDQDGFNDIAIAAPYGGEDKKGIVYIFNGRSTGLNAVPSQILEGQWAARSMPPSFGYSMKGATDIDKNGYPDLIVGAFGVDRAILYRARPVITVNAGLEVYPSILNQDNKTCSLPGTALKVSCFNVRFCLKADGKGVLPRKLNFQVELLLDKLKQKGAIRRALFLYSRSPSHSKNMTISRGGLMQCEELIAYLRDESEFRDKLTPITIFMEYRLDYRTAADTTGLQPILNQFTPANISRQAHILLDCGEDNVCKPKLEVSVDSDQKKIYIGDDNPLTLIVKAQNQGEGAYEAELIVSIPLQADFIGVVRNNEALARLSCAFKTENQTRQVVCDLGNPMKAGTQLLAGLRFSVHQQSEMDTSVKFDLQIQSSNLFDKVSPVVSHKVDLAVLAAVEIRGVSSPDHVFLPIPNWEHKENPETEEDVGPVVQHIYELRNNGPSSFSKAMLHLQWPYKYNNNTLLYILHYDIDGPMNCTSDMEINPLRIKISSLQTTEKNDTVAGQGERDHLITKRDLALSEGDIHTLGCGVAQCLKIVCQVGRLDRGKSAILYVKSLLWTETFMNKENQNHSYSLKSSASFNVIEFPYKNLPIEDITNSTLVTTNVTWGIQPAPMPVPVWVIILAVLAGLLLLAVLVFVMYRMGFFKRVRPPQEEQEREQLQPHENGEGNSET
Sequence of purified human αvβ3 integrin (Chemicon) (human) (P05106 27-788, form in doubt, chain 2 of 2, further chain): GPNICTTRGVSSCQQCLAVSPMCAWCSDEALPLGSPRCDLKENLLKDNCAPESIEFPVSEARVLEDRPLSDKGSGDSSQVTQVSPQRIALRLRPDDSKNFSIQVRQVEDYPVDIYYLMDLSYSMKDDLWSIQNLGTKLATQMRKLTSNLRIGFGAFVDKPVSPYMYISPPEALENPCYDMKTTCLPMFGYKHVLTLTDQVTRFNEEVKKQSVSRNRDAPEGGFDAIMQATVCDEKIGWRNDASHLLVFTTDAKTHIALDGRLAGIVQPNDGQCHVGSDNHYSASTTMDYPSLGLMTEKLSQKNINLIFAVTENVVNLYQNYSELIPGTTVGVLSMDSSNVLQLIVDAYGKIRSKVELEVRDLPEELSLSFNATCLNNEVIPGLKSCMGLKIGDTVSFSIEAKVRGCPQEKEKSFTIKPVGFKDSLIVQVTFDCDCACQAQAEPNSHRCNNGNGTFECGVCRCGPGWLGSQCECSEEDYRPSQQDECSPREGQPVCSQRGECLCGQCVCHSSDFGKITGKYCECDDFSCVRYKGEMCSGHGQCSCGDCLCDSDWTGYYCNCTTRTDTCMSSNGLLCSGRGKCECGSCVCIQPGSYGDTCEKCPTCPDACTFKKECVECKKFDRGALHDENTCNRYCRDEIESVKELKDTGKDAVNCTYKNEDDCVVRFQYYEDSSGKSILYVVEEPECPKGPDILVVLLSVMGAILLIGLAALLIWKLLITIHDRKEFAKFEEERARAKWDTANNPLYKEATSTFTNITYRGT

In the case of “peptide D2A, synthetic peptide of domain 2 of human uPAR (aa130-142)”, the percent reduction of coimmunoprecipitated suPAR compared to uPA alone was 50%.
